Patent EP4752156A1 (Shanghai Yunxuan Biotechnologies, Inc., dated 2026)

Target: GST-ZZS05 fusion protein (UniProt P08515 1-218 = GST)
Experiment: Biacore SPR as in Example 3.3

Sequence of GST-ZZS05 fusion protein (P08515 1-218, tags or fused parts left off): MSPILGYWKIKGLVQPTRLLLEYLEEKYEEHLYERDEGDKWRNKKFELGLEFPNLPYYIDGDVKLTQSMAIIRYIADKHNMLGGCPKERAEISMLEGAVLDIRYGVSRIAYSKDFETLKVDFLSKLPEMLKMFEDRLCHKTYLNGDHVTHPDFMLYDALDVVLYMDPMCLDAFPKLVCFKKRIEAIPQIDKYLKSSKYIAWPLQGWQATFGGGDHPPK

B1: h29 (antibody, V domains shown)
VH: QVQLVESGGGVVQPGRSLTLSCAASGFTFSRYGMHWVRQAPGKGLEWVTVITYDGRKKYYADSVKGRFTISRDNSQNTLSLQMNSLRAEDTAVYYCAKDLLIGYGMDVWGQGTTVTVSS
VL: DIVMTQSPDSLAVSLGERATIKCKSSQSVFFSSSNKNFLTWYQQKPGQPPKLLIYWASTRESGVPDRFSGSGSGTDFTLTINNLQAEDVTVYYCQQCFSTPYSFGQGTKLEIKR
Kd: 1.2 nM
